From patent US20060116325A1, “Methods and compositions for inhibiting hiv-coreceptor interactions” (priority 2001, published 2006) come the findings set out here.

The test system of the assay is HIV-1JRFL. Kind of assay: HIV-1JRFL infection of monocyte-derived macrophages, p24 ELISA. The class given is cell-based. To be noted: peptide 1 hr before virus, p24 after 72 hr; FIG. 3. As to the method: Monocyte-derived macrophages were treated with the designated concentrations of the indicated peptide for a period of 1 hr prior to addition of HIV-1JRFL. After 2 hr, cells were washed, and viral replication was determined after 72 hr by p24 analysis. Results are representative of 4 independent experiments.
PBMCs were obtained from whole blood of normal donors and isolated by Ficoll-Paque Plus (Pharmacia Biotech, Piscataway, N.J.) density gradient centrifugation, and plated at a cell density of 2×10^6 cells/ml. Monocyte-derived macrophages (MDM) were generated from adherent human peripheral blood mononuclear cells by culture for 7 days with M-CSF (100 ng/ml). […] After 2 hr, cells were washed, and cultured for additional 48-72 hr, followed by analysis of HIV replication as determined by quantification of accumulated p24 in the supernatant. The production of p24 was determined by conventional sandwich ELISA, using ELISA plates pre-coated with capture anti-p24 antibodies provided by the AIDS Vaccine Program (SAIC Frederick, NCI-FCRDC, Frederick, Md.). The captured p24 antigen was detected using rabbit anti-HIV-1 anti-p24 antibody, and a secondary goat anti-rabbit IgG (peroxidase-labeled) antibody. The captured p24 protein was detected using a 3,3′,5,5′-tetramethylbenzidine and hydrogen peroxide detection system (KPL Laboratories, Gaithersburg, Md.). […]

B1: macrophage inflammatory protein-1β (protein)
chain: APMGSDPPTACCFSYTARKLPRNFVVDYYETSSLCSQPAVVFQTKRSKQVCADPSESWVQEYVYDLELN
On to B1, for which the “inhibition of HIV-1JRFL infection of monocyte-derived macrophages (p24)” value is “comparable inhibitory activities”.
